# T1: mouse wtTNF (mouse), P06804
# T1 chain: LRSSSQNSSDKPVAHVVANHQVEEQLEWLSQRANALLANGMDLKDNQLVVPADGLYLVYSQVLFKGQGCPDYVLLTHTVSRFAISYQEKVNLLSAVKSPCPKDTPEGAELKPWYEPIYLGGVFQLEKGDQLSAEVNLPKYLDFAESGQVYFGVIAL
# T2: mTNFR2 Fc chimera (mouse, UniProt P25119)
# T2 sequence: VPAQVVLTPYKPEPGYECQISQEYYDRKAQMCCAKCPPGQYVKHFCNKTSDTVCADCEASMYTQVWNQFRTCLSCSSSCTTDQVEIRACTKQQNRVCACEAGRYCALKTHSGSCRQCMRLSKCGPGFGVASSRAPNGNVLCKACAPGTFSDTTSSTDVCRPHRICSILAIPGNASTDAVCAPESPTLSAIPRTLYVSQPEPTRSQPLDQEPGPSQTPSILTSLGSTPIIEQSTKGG
# T3: mTNFR1 Fc chimera (mouse, UniProt P25118)
# T3 sequence: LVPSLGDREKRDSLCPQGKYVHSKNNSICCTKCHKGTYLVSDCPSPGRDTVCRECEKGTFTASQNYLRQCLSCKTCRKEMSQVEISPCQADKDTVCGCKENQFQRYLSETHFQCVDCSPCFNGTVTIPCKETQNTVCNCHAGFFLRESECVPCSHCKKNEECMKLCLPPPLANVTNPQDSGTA
# Assays:
# [1] = target: T1, mouse wtTNF (mouse), P06804; assay: SEC; conditions: remark: other sources report otherwise
# mTNFR2 Fc chimera = target: T2, mTNFR2 Fc chimera; assay: SPR
# mTNFR1 Fc chimera = target: T3, mTNFR1 Fc chimera; assay: SPR
binder,measurement,setting,value
mouse wtTNF (ligand) LRSSSQNSSDKPVAHVVANHQVEEQLEWLSQRANALLANGMDLKDNQLVVPADGLYLVYSQVLFKGQGCPDYVLLTHTVSRFAISYQEKVNLLSAVKSPCPKDTPEGAELKPWYEPIYLGGVFQLEKGDQLSAEVNLPKYLDFAESGQVYFGVIAL,stoichiometry N,[1],3
same,Kd,mTNFR2 Fc chimera,10.4 nM
same,koff,mTNFR2 Fc chimera,0.0056 s⁻¹
same,kon,mTNFR2 Fc chimera,537000 M⁻¹ s⁻¹
same,Kd,mTNFR1 Fc chimera,5.84 nM
same,koff,mTNFR1 Fc chimera,0.000969 s⁻¹
same,kon,mTNFR1 Fc chimera,166000 M⁻¹ s⁻¹

# — paper PMC5613346 (Biochemistry and Biophysics Reports, 2016)
